According to US11192948B2, “Compositions and methods for inhibiting cancer stem cells” (MedImmune Limited, priority 2015, dated 2021):

Legend:
Cytivia cardiomyocytes = assay: Doxorubicin-mediated cardiomyocyte damage (calcium, viability imaging); format: cell-based
Method: Next, we sought to determine if inhibiting LOX1 could block doxorubicin-mediated cardiomyocyte damage. Cytivia™ cardiomyocytes were purchased from GE Healthcare and plated following manufacturer's instructions with the substitution of bovine fibronectin for human fibronectin. Cells were allowed to adhere for 4 days and then medium was changed. At days 5-7, medium was removed and cells were pre-incubated with the indicated concentration of LX5140110 for 4 hours prior to the addition of 5 μM doxorubicin (DOX). After addition of DOX, cells were incubated for a further 24 hours. After incubation, media was removed and cells were stained with DAPI (1:4000 dilution of 1 mg/mL), TOTO-3 (1 uL of dye solution per 1 mL of medium), and 5 μM Fluo-4. Cells were incubated for 1 hour at 37° C. and then imaged on Image on GE IN Cell Analyzer. Viability was determined by obtaining the number of cells excluding DAPI and TOTO-3 dyes while Fluo-4 was used to determine calcium concentrations. It is known that cardiomyocytes show an increase in calcium load during endotoxin induced cardiac dysfunction. (Thompson et al., Pediatric Research (2000) 47: 669-676).

Pan02.13 cells [1] = assay: Pan02.13 cell growth under standard tissue culture conditions; format: cell-based; conditions: 100 ng/mL; P<0.001
Text: (§1) Given that chemotherapies and even some targeted therapies can enrich for CSCs despite the reductions in tumor burden, combination approaches using a CSC-specific targeted therapy in combination with these agents becomes an attractive approach to treatment of cancer patients. Since LX5140110 targets CSCs specifically, we sought to address the combined effects of the current standard of care chemotherapy for pancreatic cancer, gemcitabine, and LX5140110. First the ability of gemcitabine to inhibit the Pan02.13 was tested. Pan02.13 cells were plated under standard tissue culture conditions with and without 100 ng/mL gemcitabine in a tissue culture coated flat-bottomed plate (n=10). […] To determine the effects of treatments on CSCs, Pan02.13 was treated in standard tissue culture conditions for 4 days with either 50 μg/mL of LX5140110 or a control antibody and with or without 100 ng/mL of gemcitabine (GEM) then analyzed for the percentage of CSCs by flow cytometry. The percentage of CSCs (EpCAM+CD24+CD44+) was determined for each treatment condition. The cells were first gated for single, viable cells using scatter and DAPI. Fluorescence minus one (FMO) controls were utilized for gating, with the EpCAM+population analyzed for CD44 and CD24 expression.

Pan02.13 cells [2] = assay: Percentage of CSCs (EpCAM+CD24+CD44+) in Pan02.13 by flow cytometry; format: cell-based; conditions: 4 days; for effect of single agent on percentage of CSCs: LX5140110 50 μg/mL or gemcitabine 100 ng/mL
Text: as §1

[3] = tested on: PA-0143 pancreatic PDX CSCs; assay: Tumor sphere formation of pancreatic PDX model PA-0143; format: cell-based, human; conditions: compared to STEM0268
Method: DARPins showing the preferred binding patterns were screened for their ability to inhibit sphere formation using one of the pancreatic PDX models (PA-0143) used for selections. Briefly, following dissociation of the tumor cells they were plated in 96-well ultra-low attachment plates containing MSCGM with 50 ug/mL DARPins. All DARPins were tested in triplicate. After 4 days plates were read and inhibitory molecules were identified as showing inhibitory activity at least 1 standard deviation (SD) from the mean of the untreated and control DARPin-treated wells. A second assay based on expression of EZH2 in CSCs was also run. We have previously shown in pancreatic cancer that CSCs can be identified based on their high expression of EZH2 and trimethylation of histone 3 on lysine 27 (Van Vlerken L et al. 2013 EZH2 is required for breast and pancreatic cancer stem cell maintenance and can be used as a functional cancer stem cell reporter Stem Cells Transl Med 2(1):43-52). Using HPAC cells, the EZH2 assay was performed as previously described with the inclusion of 50 μg/mL DARPin. […]
STEM0268 inhibits cancer stem cells. […] Briefly, cells were dissociated using 200 units/mL of collagenase IV plated, washed counted and resuspended at 30,000 cells/mL in MSCGM (Lonza) and plated in an ultra-low attachment 6-well plate. […]

[4] = tested on: PA-0165 pancreatic PDX CSCs; assay: Tumor sphere formation of pancreatic PDX model PA-0165; format: cell-based, human; conditions: compared to STEM0268
Method: STEM0268 inhibits cancer stem cells. […] Briefly, cells were dissociated using 200 units/mL of collagenase IV plated, washed counted and resuspended at 30,000 cells/mL in MSCGM (Lonza) and plated in an ultra-low attachment 6-well plate. Antibodies were added to appropriate wells at 50 μg/mL. Following incubation for 4 days, spheres were harvested, dissociated and replated in a similar manner to generate secondary spheres and assess the ability of CSCs to self-renew. […] Salinomycin (1 μM) served as the positive control in both of these experiments (Gupta P B et al. 2009).

pancreatic cell lines = assay: Inhibition of CSCs in pancreatic cell lines; format: cell-based; conditions: multiple pancreatic cell lines
Text: To further confirm the ability of a LOX1 inhibitor to inhibit CSC sphere formation, a LOX1-specific monoclonal antibody (mAb), LX5140110, which comprises a VL comprising SEQ ID NO: 33 and a VH comprising SEQ ID NO: 4 (see, e.g., Table 1), was compared to STEM0268 for their ability to inhibit sphere formation in the pancreatic PDX models.

colorectal cell lines = assay: Inhibition of CSCs in colorectal cell lines; format: cell-based
PA-0143 PDX tumors = assay: In vivo study with PA-0143 PDX tumors; set-up: species or system NSG mice
Method: An in vivo study with PA-0143, was run to determine the ability of LX5140110 to inhibit CSCs in vivo. PA-0143 PDX tumors were passaged by trocar implantation of tumor fragments into 6-8 week old NSG mice (NOD.Cg-Prkdc^scid Il2rg^tmIWjl/SzJ) and allowed to grow to −300 mm^3 at which point they were randomized and treated with subcutaneous injections of either a control IgG1 mAb or LX5140110 at 30 mg/kg twice-weekly for 2 weeks (FIG. 8A). […] Twenty-four hours after the last dose of antibodies, tumors were removed from a subset of the mice and analyzed for the percentage of CSCs.

[5] = 50 μg/mL with 100 ng/mL gemcitabine
[6] = 4 hours pre-incubation before 5 μM DOX

Molecule: COc1cccc2c1C(=O)c1c(O)c3c(c(O)c1C2=O)C[C@@](O)(C(=O)CO)C[C@@H]3O[C@H]1C[C@H](N)[C@H](O)[C@H](C)O1 [DOX, doxorubicin, reference compound]
- viability of cardiomyocytes (Cytivia cardiomyocytes; 5 μM DOX, 24 hours): decreased viability
- increase of calcium concentration (Cytivia cardiomyocytes; 5 μM DOX, 24 hours, compared to untreated controls): approximately 2.5 fold

Molecule: Nc1ccn([C@@H]2O[C@H](CO)[C@@H](O)C2(F)F)c(=O)n1 [gemcitabine, reference compound]
- cell numbers (Pan02.13 cells [1]): significant reduction in cell numbers
- effect of single agent on percentage of CSCs (Pan02.13 cells [2]): enriched for CSCs

B1: LX5140110: LOX1-specific monoclonal antibody; VH SEQ ID NO: 4, VL SEQ ID NO: 33 (antibody, V domains shown)
VH: QVQLVQSGAEVKKPGASVKVSCKVSGYTLTELSMHWVRQAPGKGLEWMGGFDPEDFKYHTHQKFQGRVTMTEDTSTDTAYMELSSLRSEDTAVYYCALVWGTQGKGVRGWDYYYGMDVWGQGTTVTVSS
VL: QSVVTQPPSVSGAPGQRVTISCTGSSSNIGAGYDVHWYQQLPGTAPKLLIYGNSNRPSGVPDRFSGSKSGTSASLAITGLQAEDEADYYCQSYDSSLSGWVFGGGTKLTVL
modifications: LX5140110 Heavy Chain sequence; LX5140110 Light Chain sequence
- inhibition of sphere formation (in words) [3]: inhibited sphere formation
- inhibition of sphere formation (in words) [4]: inhibited sphere formation
- inhibition of CSCs (pancreatic cell lines): able to inhibit CSCs
- inhibition of CSCs (colorectal cell lines): able to inhibit CSCs
- tumor growth (PA-0143 PDX tumors; 30 mg/kg subcutaneous twice-weekly for 2 weeks, vs vehicle and control IgG1, P<0.001): only slightly reduced tumor growth
- percentage of CSCs in tumors (PA-0143 PDX tumors; 24 hours after last dose, compared to vehicle control): significant reduction of CSCs
- effect on gemcitabine-induced enrichment of CSCs (Pan02.13 cells [2]; [5]): inhibited this increase
- percentage of CSCs of viable cells (Pan02.13 cells [2]; [5]): 0.62%
- effect of single agent on percentage of CSCs (Pan02.13 cells [2]): slight reduction of CSCs
- effect on DOX-induced accumulation of calcium (Cytivia cardiomyocytes; [6]): able to inhibit the accumulation of calcium
- effect on DOX-induced decrease of viability (Cytivia cardiomyocytes; [6]): reversed
